The values below come from PMC6777427, “Large-Scale Molecular Evolutionary Analysis Uncovers a Variety of Polynucleotide Kinase Clp1 Family Proteins in the Three Domains of Life” (Genome Biology and Evolution, 2019).

In this data set the test system is T1, Nc1ncnc2c1ncn2[C@@H]1O[C@H](COP(=O)(O)OP(=O)(O)OP(=O)(O)O)[C@@H](O)[C@H]1O.
T1 construct: codon-optimised synthetic gene in pET-23b (NdeI/XhoI), C-terminal His6 tag kept, expressed in E. coli BL21(DE3), heat-treated at 60 °C, HisTrap; approx. 27 kDa by SDS-PAGE
In words: purified protein. In kind it is biochemical, Thermus scotoductus. To be noted: ssRNA oligonucleotide (5'-R20-FAM-3') as co-substrate, 10 mM MgCl2, pH 8.0, 60 °C, ATP 0.1-50 µM.

Usually Km stands for the concentration of substrate that gives half-maximal velocity. Consider Ts-Clp1 (Thermus scotoductus SA-01), for which the Michaelis-Menten constant (Km) was determined as 2.5 µM.
